Results taken from patent US9688764B2, “Methods of treating breast cancer by administering anti-human prolactin receptor (PRLR) antibodies” (REGENERON PHARMACEUTICALS, INC., priority 2013, dated 2017).
Read-outs that look alike come from different tables or passages of the source.

Columns and labels:
[1] = tested on: MCF7 (MCF7/ATCC) cells; test: Cell viability (cell kill) assay, nuclear counts; assay type: cell-based; details: MCF7/ATCC
Description: (§1) PRLR-overexpressing cells, including HEK293, PC3, MCF7 and NCI-N87, were generated to assess the ability of anti-PRLR conjugated antibodies to reduce cell viability. For comparative purposes, PC3 and T47D cells with overexpressed ErbB2 were also generated, as well as an MCF7 cell line over-expressing both hPRLR and hErbB2. Briefly, Lipofectamine® 2000-mediated transfection methodology was utilized to generate HEK293 cells expressing human PRLR (HEK293/hPRLR) or human ErbB2 (HEK293/hErbB2). Lipofectamine LTX with Plus Reagent was used to generate PC3 cells expressing human PRLR (PC3/hPRLR) or human ErbB2 (PC3/hErbB2). Lentiviral-mediated transduction was utilized to generate MCF7 cells expressing human PRLR (MCF7/hPRLR), NCI-N87 cells expressing human PRLR (NCI-N87/hPRLR), T47D cells over-expressing human ErbB2 (T47D/hErbB2), and MCF7 cells expressing both human PRLR and human ErbB2 (MCF7/hPRLR/hErbB2). All lines were selected for at least two weeks in complete growth media plus appropriate selection reagents. Stably expressing populations were enriched for PRLR expression via FACS using the anti PRLR antibody Control I.
(§2) Next, the ability of anti-PRLR-DM1 antibody-drug conjugates (i.e., anti-PRLR antibodies conjugated to DM1 via a non-cleavable linker [SMCC]) to reduce cell viability was determined using in vitro cell based assays. Cells were seeded in PDL-coated 96 well plates at 1500 to 10000 cells per well in complete growth media and allowed to grow overnight. For cell viability curves, ADCs or free DM1 (as the methyl disulfide derivative DM1-SMe) were added to the cells at final concentrations ranging from 500 nM to 5 pM and incubated for 3 days. The 293, PC3 and T47D cells were incubated with CCK8 (Dojindo, Rockville, Md.) for the final 1-3 hours and the absorbance at 450 nm (OD450) was determined on a Flexstation3 (Molecular Devices, Sunnyvale, Calif.). MCF7 cells were treated with Hoechst 33342 nuclear stain while being fixed with 4% formaldehyde. Images were acquired on the ImageXpress micro XL (Molecular Devices, Sunnyvale, Calif.) and nuclear counts were determined via Columbus image analysis software (Perkin Elmer, Shelton, Conn.). Background OD450 values (PC3, 293, and T47D) or nuclear counts (MCF7) from digitonin (40 nM) treated cells was subtracted from all wells and viability was expressed as a percentage of the untreated controls. IC50 values were determined from a four-parameter logistic equation over a 10-point response curve (GraphPad Prism).
(§3) Finally, the potency of anti-PRLR antibodies conjugated to DM1 via the non-cleavable linker SMCC was compared to the cell killing potency of anti-PRLR antibodies conjugated to MMAE via the cleavable linker: mc-vc-PAB (available from Concortis, San Diego, Calif.). Cells used in this experiment were PC3, PC3/hPRLR, MCF7/ATCC and MCF7/PRLR.
(§4) Additional toxins (DM4, MeNHC3-May, and MMD) conjugated to anti-PRLR antibodies were also tested in T47D and MCF7/hPRLR cell lines, and results are summarized in Tables 19 (293 and T47D cell killing) and 20 (MCF7/ATCC and MCF7/PRLR cell killing). (ND=not detected).

[2] = tested on: HEK293 (293) cells; test: Cell viability (cell kill) assay; assay type: cell-based
Description: as §1, §2

[3] = tested on: MCF7/hPRLR (MCF7/PRLR) cells; test: Cell viability (cell kill) assay, nuclear counts; assay type: cell-based, human
Description: as §1, §2, §3, §4

[4] = tested on: T47D cells; test: Cell viability (cell kill) assay; assay type: cell-based; details: T47D; for IC50: read-out: IC50
Procedure: as §2
Additionally, the impact of the PRLR ligand, PRL, on PRLR-SMCC-DM1 cell kill in T47D cells was assessed. T47D cells were incubated simultaneously with PRL (15 nM) and either a non-blocking anti PRLR antibody (H1H6782P) or a receptor blocking antibody (H1H6958N2).
as §4

[5] = tested on: PC3/hPRLR cells; test: Cell viability (cell kill) assay; assay type: cell-based, human; details: PC3/hPRLR; Table 18
Description: as §1, §2, §3

| Molecule | % Kill ([1]; Table 20) [%] | IC50 ([1]; Table 20) [nM] | % Kill ([2]; 293, Table 19) [%] | IC50 ([2]; 293, Table 19) [nM] | % Kill ([3]; Table 20) [%] | IC50 ([3]; Table 20) [nM] | % Kill ([4]; Table 19) [%] | IC50 ([4]; Table 19) [nM] | IC50 ([2]; HEK293, Table 13, + 15 nM PRL) [nM] | IC50 ([2]; HEK293, Table 13, without PRL) [nM] | IC50 ([4]; Table 13, + 15 nM PRL) [nM] | IC50 ([4]; Table 13, without PRL) [nM] | % Kill ([1]; Table 18) [%] | IC50 ([1]; Table 18) [nM] | % Kill ([3]; Table 18) [%] | IC50 ([3]; Table 18) [nM] | % Kill [5] [%] | IC50 [5] [nM] |
| --- | --- | --- | --- | --- | --- | --- | --- | --- | --- | --- | --- | --- | --- | --- | --- | --- | --- | --- |
| COc1cc2cc(c1Cl)N(C)C(=O)CC(OC(=O)C(C)N(C)C(=O)CCSSC)C1(C)OC1C(C)C1CC(O)(NC(=O)O1)C(OC)C=CC=C(C)C2 (stereo not drawn) [Free DM1 (Me-SS-May)] | 80 | 1.3 | 95 | 1.2 | 80 | 0.8 | 100 | 1.5 |  |  |  |  |  |  |  |  |  |  |
| H1H6782P-SMCC-DM1 (conjugate) VH: EVQLVESGGGLVQPGRSLRLSCAASGFTFDDYAMHWVRQAPGKGLEWVSGIIWNSGHIGYGDSVKGRFTISRDNAKKSLYLQMNSLRAEDTALYYCARDSGRYQSYFDYWGQGTLVTVSS VL: DIQMTQSPSTLSASVGDRVTITCRASHIISSWLAWYQQKPGKAPKVLIFKASSLESGVPSRFSGSGSGTEFTLTISSLQPDDFATYYCQQYNTYSRTFGQGTKVEIK | 70 | 250 | 80 | 120 | 80 | 0.3 | 100 | 3 | 70 | 90 | 2 | 1 |  |  |  |  |  |  |
| H1H6782P-mc-VC-PAB-MMD (conjugate) VH: EVQLVESGGGLVQPGRSLRLSCAASGFTFDDYAMHWVRQAPGKGLEWVSGIIWNSGHIGYGDSVKGRFTISRDNAKKSLYLQMNSLRAEDTALYYCARDSGRYQSYFDYWGQGTLVTVSS VL: DIQMTQSPSTLSASVGDRVTITCRASHIISSWLAWYQQKPGKAPKVLIFKASSLESGVPSRFSGSGSGTEFTLTISSLQPDDFATYYCQQYNTYSRTFGQGTKVEIK | 50 | 200 | 70 |  | 90 | 0.3 | 90 | 2 |  |  |  |  |  |  |  |  |  |  |
| H1H6782P-mc-VC-PAB-MeNHC3-May (conjugate) VH: EVQLVESGGGLVQPGRSLRLSCAASGFTFDDYAMHWVRQAPGKGLEWVSGIIWNSGHIGYGDSVKGRFTISRDNAKKSLYLQMNSLRAEDTALYYCARDSGRYQSYFDYWGQGTLVTVSS VL: DIQMTQSPSTLSASVGDRVTITCRASHIISSWLAWYQQKPGKAPKVLIFKASSLESGVPSRFSGSGSGTEFTLTISSLQPDDFATYYCQQYNTYSRTFGQGTKVEIK | 50 | 250 | 90 |  | 80 | 0.2 | 90 | 2 |  |  |  |  |  |  |  |  |  |  |
| H1H6953N-mc-VC-PAB-MMAE (conjugate) VH: EVQLLESGGGLVQPGGTLRLSCAASGFTFSAYAMSWVRQAPGKGLEWVSSINVRAGDTYYADSVKGRFTISRDNSKNTLFLLMNSLRAEDTAAYYCAKARYSSNWGFDFWGQGTLVTVSS VL: DIVMTQSPDSLTVSLGARTTINCQSSQTILHSSNNHNYLAWYQQKPGLPPKLLIYWSSTRESGVPDRFSGSGSGTDFTLTISSLQAEDVAIYYCQQYSNTPYTFGQGTKLEIN | 40 | 150 |  |  | 85 | 0.1 | 80 | 1 |  |  |  |  | 42 | 150 | 85 | 0.1 | 80 | 0.2 |
| H1H6953N-mc-VC-PAB-MeNHC3-May (conjugate) VH: EVQLLESGGGLVQPGGTLRLSCAASGFTFSAYAMSWVRQAPGKGLEWVSSINVRAGDTYYADSVKGRFTISRDNSKNTLFLLMNSLRAEDTAAYYCAKARYSSNWGFDFWGQGTLVTVSS VL: DIVMTQSPDSLTVSLGARTTINCQSSQTILHSSNNHNYLAWYQQKPGLPPKLLIYWSSTRESGVPDRFSGSGSGTDFTLTISSLQAEDVAIYYCQQYSNTPYTFGQGTKLEIN | 60 | 150 |  |  | 80 | 0.2 | 90 | 1 |  |  |  |  |  |  |  |  |  |  |
| H1H6953N-mc-VC-PAB-MMD (conjugate) VH: EVQLLESGGGLVQPGGTLRLSCAASGFTFSAYAMSWVRQAPGKGLEWVSSINVRAGDTYYADSVKGRFTISRDNSKNTLFLLMNSLRAEDTAAYYCAKARYSSNWGFDFWGQGTLVTVSS VL: DIVMTQSPDSLTVSLGARTTINCQSSQTILHSSNNHNYLAWYQQKPGLPPKLLIYWSSTRESGVPDRFSGSGSGTDFTLTISSLQAEDVAIYYCQQYSNTPYTFGQGTKLEIN | 50 |  | 70 |  | 90 | 0.2 | 90 | 1 |  |  |  |  |  |  |  |  |  |  |
| H1H6975P-SMCC-DM1 (conjugate) VH: EVHLVESGGGLVQPGGSLRLSCAASGFTFSSYEMNWVRQTPGKGLEWISHISSRSVIIYYADSVKGRFTISRDNAKNSLFLQMNSLRAEDTAVYFCAGITIFGIPEYWGQGTLVTVSS VL: EIVLTQSPATLSLSPGERATLSCRASQSVSSYFAWYQQKPGQAPRLLIYDASSRATGIPTRFSGSGSGTDFTLTISSLEPEDFAVYYCQQRSSWPITFGQGTRLEIK | 70 | 200 | 90 | 80 | 80 | 0.2 | 100 | 2 |  |  |  |  |  |  |  |  |  |  |
| H1H6975P-mc-VC-PAB-MMD (conjugate) VH: EVHLVESGGGLVQPGGSLRLSCAASGFTFSSYEMNWVRQTPGKGLEWISHISSRSVIIYYADSVKGRFTISRDNAKNSLFLQMNSLRAEDTAVYFCAGITIFGIPEYWGQGTLVTVSS VL: EIVLTQSPATLSLSPGERATLSCRASQSVSSYFAWYQQKPGQAPRLLIYDASSRATGIPTRFSGSGSGTDFTLTISSLEPEDFAVYYCQQRSSWPITFGQGTRLEIK | 50 | 150 | 80 |  | 90 | 0.2 | 90 | 3 |  |  |  |  |  |  |  |  |  |  |
| H1H6765P-SMCC-DM1 (conjugate) VH: EVQLVESGGGVVRPGGSLRLSCVGSGFSFDDHGMNWVRQGPGKGLEWVSGFNWNGGSTNYAESVKGRFTISRDNARNSLFLQMNSLRAEDTALYYCVRGRSGWFNDAFDVWGPGTMVTVSS VL: EIVLTQSPGTLSLSPGERATLSCRASQTINSNYLAWYRQKPGQTPRLLIYGTSSRATGIPDRFSGSGSGTDFSLTISRLEPEDFAVFYCQQYAGLPTFGPGTKVDIK | 70 | 150 | 100 | 85 | 90 | 0.3 | 90 | 1 |  |  |  |  | 71 | 90 | 81 | 0.1 | 83 | 0.3 |
| H1H6958N2-SPDB-DM4 (conjugate) VH: QVQLVESGGGVVQPGRSLRLSCGASGFTFRNYGMQWVRQGPGKGLEWVTLISFDGNDKYYADSVKGRFTISRDNSKNTLFLQMNSLRTEDTAVYYCARGGDFDYWGQGTLVTVSS VL: DIQMTQSPSSLSASVGDRVTITCRASQDIRKDLGWYQQKPGKAPKRLIYAASSLHSGVPSRFSGSGSGTEFTLTISSLQPEDFATYYCLQHNSYPMYTFGQGTKLEIK | 80 | 25 |  |  | 90 | 0.8 | 100 | 1 |  |  |  |  |  |  |  |  |  |  |
